Measured values: the nanobody polyreactivity screen of Harvey et al. (2022)

test: yeast display, Sf9 membrane polyspecificity reagent, FACS + sequencing; frameworks hold sequencing errors
Summary of the method: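 Galactose induction of a Saccharomyces cerevisiae BJ5465 synthetic nanobody display library ran 36–48 hours. The cells were then stained for 1 hour at 4 °C with 10% biotinylated, detergent-solubilized Sf9 membrane reagent, pulled down on streptavidin microbeads and FACS-sorted into low and high (top ~1%) gates on expression and reagent-binding fluorescence. Labels for polyreactivity follow the gate of origin.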

For “QVQLVESGGALVQAGGSLRLSCAASGRIFSSYAMGWYRQEPGKERELVAAISRSGARTYYADSVKGRFTISRDNAKYSVYLQMNSLIAEDSAVSYCAAVTVSCYDYWGQGTQVTVSS”, which “polyreactivity (PSR sort gate)” value is on record?
Its value is “high polyreactivity”.

Which “polyreactivity (PSR sort gate)” value does the source give for “QVQLVESGGGLVQSGGILRLSCAATGSIFTSDAMGWYRLAPGKEMELVAAITFSGGDTYYADSVKGRFTISRDNAKNTVYLQMNSLNPEDTAVYYCNADPQQVGAYEYWGQGTQVTLSS” here?
The value was “low polyreactivity”.

Which “polyreactivity (PSR sort gate)” value does the source give for “QVQLVESGGGLVQAGGSLRLSCAASGSTIPSYAMGWYRQAPGKERELVASITYSDGTTRYADSVKGRFTISRDNAKNTVYLQMNSLKPEDTAVYYCAKYYYTSIVGYDSWGQGTQVTVSS” here?
Its value is “low polyreactivity”.

Which “polyreactivity (PSR sort gate)” value does the source give for “QVQLVESGGGLVQAGGSLRLSCAASGIIFKIYAMGWYRQAPGKERELVAAISWRGGSTYYADSVKGRFTISRDNAKNTVYLQMNSLKPEDTAVYYCAAARGYRTGYGYWGQGTQVTVSS” here?
Its value is “high polyreactivity”.

With “QVQLVESGGGLVQAGGSHRLSCAASGYIFRYSTMGWYRQAPGKERELVAVITRGGSTYYADSVKGRFTISRDNAKNTVYLQMTSLNPEDTAVYYCAAVRTKVWRGPEMDYWGQCTQVTVSS” as the sequence, how does the “polyreactivity (PSR sort gate)” value read?
Its value is “high polyreactivity”.

Which “polyreactivity (PSR sort gate)” value does the source give for “QVQLVESGGGLVQAGGSLRLSCAASGFTFYDYAMVWYRQAPGKERELVAGITSTGRTYYADSVKGRFTISRDNAKNTVYLQMNSLKPEDTAVYYCNARTLPNYYRRYDYWGQGTEVTVSS” here?
The value was “high polyreactivity”.

For “QVQLVESGGGLVQAGGSLRLSCAASGSTFTRYAMGWYRQAPGKERELVAAITRSGGGTYYADSVKGRFTSSRDNAKNTVYLQLNSLKPEDTAVYYCAKDIVFYGSPGYGYWGQGTQVTVSS”, which “polyreactivity (PSR sort gate)” value is on record?
The value was “high polyreactivity”.

For “QVQLVESGGGLVQAGGSLRLRCAASGFIFIFNAMGWYRQAPGKERELLAAIDTSDDSTYYADSVKGRFTISRDNAKNTVYLQMNSLYPEDTAVYYCAAEELSNYEYWGQGTQVSVSS”, which “polyreactivity (PSR sort gate)” value is on record?
The value was “low polyreactivity”.

With “QVQLVESGGGLVQAGGSLRLSCAASGRIFPAYAMGWYRQAPGTERELVASIRRGGITYADSVKGRFTISRDNAKNTVYLQMNSLKPEDTAVYYCNADYRGWGYHMDYWGQGTQVTVSS” as the sequence, how does the “polyreactivity (PSR sort gate)” value read?
The value was “low polyreactivity”.

Which “polyreactivity (PSR sort gate)” value does the source give for “QVQLVESGGGLVHAGGSLRLSCAASGRTFTLYAMGWYRQAPGKERELVAAITRTGRTTYADSVKGRFTISRDNAKNTVYLQMNSLKPEDTAVYYCAAEVEYTSASIVYYEYEYWGQGTQVTVSS” here?
Its value is “high polyreactivity”.

For “QVQLVESGGGLVQAGGSLRLSCAASGSIFKRNAMGWYRQAPGKERELVASITWRGGRTYYADSVKGRFTISRDNAKNTVYLQMNILKPEDTAVYYCATTQYTSHYDAYGYWGQGTQVTVSS”, which “polyreactivity (PSR sort gate)” value is on record?
The value was “high polyreactivity”.

With “QVQLVESGGGLVQAGGSLRLSCAASGFIFRYYAMGWYRQAPGKERELVAAIDYSGGSTNYADSVKGRFTISRDYAKNTVYLQMNSQKPEDTAVYYCNAEYTWHRGYDYWGQGTQVTVSS” as the sequence, how does the “polyreactivity (PSR sort gate)” value read?
Its value is “low polyreactivity”.

With “QVQLVESGGGLVQAGGSLRLSCAASGITFYYYAMRWYRQAPGKERELVAAISRGGSTYYADSVKGRFTISCDNAKNTVYLQMNSLKPEDTAVYYCNAYTTGYLFGYWGQGTQVTVSS” as the sequence, how does the “polyreactivity (PSR sort gate)” value read?
The value was “high polyreactivity”.

For “QVQLVESGGGLVQAGGSLRLSCAASGLTFSDYAMGWYRQAPGKERELVAAITYNGGSTYYADSVKGRFTISRDNAKNTVYLQMNSLKPEDTAVYYCAADTDDVGLRDYWGQGTQVTVSS”, which “polyreactivity (PSR sort gate)” value is on record?
The value was “low polyreactivity”.

With “QVQLVESGGGLVQAGGSLRLSCAASGFIFVQYAMGWYRQAPGKERELVAAISKGGGSTYYADSVKGRFTISRDNAKNTVYLQMNSLKPEDTAVYDCNADKVTRVTYWDDSWGQGTQVTVSS” as the sequence, how does the “polyreactivity (PSR sort gate)” value read?
The value was “high polyreactivity”.

With “QVQLVESGGGLVQAGGSLRLSFPASGSTYFTYAMGWYRQAPGKERELVAAISWSGGTTYYADSVKGRFTISRDNAKNTVYLQMNSLKPEDTAVYYCASDRAGILKANDYWGKGTQVTVSS” as the sequence, how does the “polyreactivity (PSR sort gate)” value read?
Its value is “low polyreactivity”.

Which “polyreactivity (PSR sort gate)” value does the source give for “QVQLVESGGGLVQAGGSLRLSCAASGFTFRYYAMGWYRQAPGKERELVAAITSRGGNTYYADSVKGRFTISRDNAKNTVYLQMNSLKPEDTAVYYCAARYSTTMDYWGQGTQVTVSS” here?
The value was “high polyreactivity”.
